Values quoted from earlier work in article PMC2912364.

Molecular target: IL-15Rα (UniProt Q13261)
UniProt Q13261, sequence (Q13261 31-205): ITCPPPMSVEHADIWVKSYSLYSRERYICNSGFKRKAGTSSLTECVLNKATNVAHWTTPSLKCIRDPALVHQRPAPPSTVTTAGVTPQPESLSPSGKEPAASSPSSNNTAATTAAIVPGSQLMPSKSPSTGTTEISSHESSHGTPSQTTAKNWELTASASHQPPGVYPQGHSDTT

Kd: 0.038 nM
Substance: IL-15 (from UniProt P40933)
